13 molecules from patent US20220306734A1 (H LUNDBECK A S, published 2022) can be followed below.

Numbering of substitutions follows the chain as printed.

B1: mGluR5 Ab16 (antibody, V domains shown)
VH: QSVEESGGRLVTPGTPLTLTCTASGFTISSYSMIWVRQAPGKGLESIGWINTGGSAYYANWAKGRFTISRTSTTVDLKMTSLTTEDTATYFCARDNNWSFNLWGQGTLVTVSS
VL: DIVMTQTPSSVSAAVGGTVTIKCQASQSIGTNLAWYQQKSGQPPKRLTYRASNLESGVPSRFKGSGSGTEFTLTISDLECADAATYYCQGGYYREGNSPTYPFGGGTEVVVKR
notes: Rabbit variable regions on human heavy and light chain constant regions (chimeric)
B2: mGluR5 Ab19 (antibody, V domains shown)
VH: QEQLEESGGDLVKPEGSLTLTCTASGFSFSNYYYMCWVRQAPGKGLEWIACIYTSSGSTYYANWVNGRFTISRSTSLNTVTLQVTSLTAADTATYFCAKSFGVGGYSFNLWGQGTLVTVSS
VL: AYDMTQTPASVEVAVGGTVTIKCQASQSISSYLSWYQQKPGQRPKLLIYRASTLASGVSSRFKGSGSGTEYSLSISGMECDDAATYYCQQGTTISDVDNVFGGGTEVVVKR
notes: as for B1
B3: mGluR5 Ab8 (antibody, V domains shown)
VH: QSVEESGGRLVTPGTPLTLTCSVSGIDLSSYAMSWVRQAPGKGLEWIGVIYASGSTYYASWAKGRFTISKTSTTVDLKITSPTTGDTATYFCVRDTTATYNYFNLWGQGTLVTVSS
VL: AYDMTQTPASVEVAVGGTATIKCQASQSIYNYLAWYQQKPGQPPKLLIYEASTLASGVPSRFKGSGSGTEFTLTISDLECADAATYYCQQSLSPSNVGRRVFGGGTEVVVKR
notes: as for B1
B4: mGluR5 Ab21 (antibody, V domains shown)
VH: QSLEESGGGLVQPGASLTLTCTASGFSFSSNYWICWVRQAPGKGLEWIGCIYTGTGITWYASWVNGRVTISSTSSTTVTLQVNSLTAADTATYFCARGSGDIAWAWDLWGQGTLVTVSS
VL: DVVMTQTPASVSAAVGGTVTIKCQASQSIYTNLAWYQQKPGQPPKLLIYKASTLASGVSSRFKGSGSGTEFTLTISGVQCADAATYYCQCTGYGSSGWTFGGGTEVVVKR
notes: as for B1
B5: mGluR5 Ab3 (antibody, V domains shown)
VH: QSLEESGGRLVTPGTPLTLTCTVSGIDLSSYAVGWVRQAPGKGLEYIGIIYASGNTWYASWVKGRFTISKTSTTVDLKLASLTTEDTATYFCARGHGATYDYFNLWGPGTLVTVSS
VL: AYDMTQTPASVEVAVGGTVTIKCQASQSISSYLAWYQQKPGQPPKLLIYDASDLASGVPSRFKGSGSGTEYTLTISGVQCDDAATYYCQQGLATANVDNVFGGGTEVVVKR
notes: as for B1
B6: mGluR5 Ab20 (antibody, V domains shown)
VH: QSVEESGGRLVTPGTPLTLTCTVSGFSLSDYGLNWVRQAPGKGLEWIGIIYASGSTYYANWAKGRFTISKTSTTVDLKMTSPTTEDTATYFCVRDSSATYDYFNLWGPGTLVTVSS
VL: YDMTQTPASVEVAVGGTVTIKCQASQSISSYLAWYQQKPGQPPRLLIYGASNLASGVPSRFKGSGSGTEYTLTISDLECADAATYYCQQALSPSNVDNAFGGGTEVVVKR
B7: mGluR5 Ab1 (antibody, V domains shown)
VH: QQQLEESGGGLVKPGGTLTLTCKVSGIDFSSYYYMCWVRQAPGKGLEWIACIYAGDGGTYYASWAKGRFTSSKTSSTTVTLQMTSLTAADTATYFCARGSGVGSYGYSLWGPGTLVTVSS
VL: DIVMTQTPASVEAAVGGTVTIKCQASESIYSNLAWYQQKPGQPPKLLIYRASNLESGVPSRFKGSGSGTEFTLTISDLECADAATYYCQGYYASTTTNAFGGGTEVVVKR
notes: as for B1
B8: mGluR5 Ab17 (antibody, V domains shown)
VH: B7 VH with Q2R, T17A, V24A, M35I, G58T, S63T, K66E, S108N, P112Q
VL: B7 VL with S28Y, N53T, Y92F, A93P, T95I, T96I
notes: as for B1
B9: mGluR5 Ab23 (antibody, V domains shown)
VH: B7 VH with V24A, S30N, S31D, L46P, A54N, G58D, S63N, S71I, S108N, P112Q
VL: B7 VL with N53T, E55A, T96I, A99V
B10: mGluR5 Ab15 (antibody, V domains shown)
VH: QQLVESGGGLVKPGGTLTLTCKGSGIDFNDYYYICWVRQAPGKGLEWILCIYNGDGETYYANWAKGRFTISKTSSTTVTLQMTSLTGADTATYFCARGSGVGSYGYNFWGQGTLVTVSS
VL: B7 VL with S28N, E55A, T96V, A99G
notes: as for B1
B11: mGluR5 Ab14 (antibody, V domains shown)
VH: B7 VH with V24G, S30N, S31D, A54N, G58E, S63N, S71I, S108N, L109F, P112Q
VL: B7 VL with E55A, T96V
notes: as for B1
B12: mGluR5 Ab18 (antibody, V domains shown)
VH: QQQLEESGGGLVKPGGTLTLTCKASGLDFSNYHYMCWVRQAPGKRPEWIACIYNGDGTTYDASWAKGRFTSSKTSSTTVTLQMTSLTAADTATYFCARGSGVGSYGYNLWGQGTLVTVSS
VL: B7 VL with N53T, T95I, T96I
notes: as for B1
B13: mGluR5 Ab13 (antibody, V domains shown)
VH: QSLEESGGDLVKPGASLTLTCTASGFSFSSSDYMCWVRQAPGKGLEWIGCIYTGDGTTYYASWAKGRFTISKTSSTTVTLQMTSLTAADTATYFCARGAGVGSYGYNLWGPGTLVTVSS
VL: DIVMTQTPASVEAAVGDTVTINCQASQNIYSNLAWYQQKPGQPPKLLIYRASTLASGVPSRFKGSGSGTQFTLTISDLECADAATYYCQSYYASSISNYFGGGTEVVVKR
notes: as for B1

One assay concerns the target full-length (FL) human mGluR5 on BA/F3-mGluR5 clone 10C9 cells (human) (UniProt P41594). Briefly: cell-based or functional assay.
Molecule B1 displayed a pERK Assay Inhibition IC50-nM of 0.17 nM.

For the molecule B2, the pERK Assay Inhibition IC50-nM amounted to 1.07 nM.

B3: the pERK Assay Inhibition IC50-nM is 2.29 nM.

As to B4, the pERK Assay Inhibition IC50-nM turned out to be 1.41 nM.

Molecule B5 gave a pERK Assay Inhibition IC50-nM of 3.91 nM.

Turning to B6, the pERK Assay Inhibition IC50-nM worked out at 2.36 nM.

In turn, B7 yielded a pERK Assay Inhibition IC50-nM of 0.14 nM.

For B8, the pERK Assay Inhibition IC50-nM was determined as 0.15 nM.

The molecule B9 returned a pERK Assay Inhibition IC50-nM of 0.14 nM.

B10 came in with a pERK Assay Inhibition IC50-nM of 0.18 nM.

In turn, B11 came in with a pERK Assay Inhibition IC50-nM of 0.15 nM.

For B12, the pERK Assay Inhibition IC50-nM was 0.15 nM.

For B13, the pERK Assay Inhibition IC50-nM came to 0.22 nM.

Another assay shares this target. As to the kind of experiment: flow cytometry, BA/F3-mGluR5 10C9 cells, 10 ug/ml antibody.
B1 gave a mGluR5 (FL) cell binding-fold over background of 40 fold.

As to B2, the mGluR5 (FL) cell binding-fold over background amounted to 38.3 fold.

The molecule B3 displayed a mGluR5 (FL) cell binding-fold over background of 32.1 fold.

B4 showed a mGluR5 (FL) cell binding-fold over background of 34.2 fold.

In turn, B5 displayed a mGluR5 (FL) cell binding-fold over background of 31.1 fold.

B6 yielded a mGluR5 (FL) cell binding-fold over background of 26.1 fold.

In turn, B7 yielded a mGluR5 (FL) cell binding-fold over background of 40.8 fold.

As to B8, the mGluR5 (FL) cell binding-fold over background was determined as 40.4 fold.

B9 returned a mGluR5 (FL) cell binding-fold over background of 37.9 fold.

B10 showed a mGluR5 (FL) cell binding-fold over background of 41.3 fold.

In turn, B11 displayed a mGluR5 (FL) cell binding-fold over background of 40.6 fold.

With B12, the mGluR5 (FL) cell binding-fold over background is 39.6 fold.

Take B13: the mGluR5 (FL) cell binding-fold over background amounted to 37.4 fold.

The next assay deals with human mGluR5 extracellular domain (human-mGluR5-ECD) (human) (UniProt P41594). As to the kind of experiment: HTRF, soluble ECD.
Chain of human mGluR5 extracellular domain (human-mGluR5-ECD) (human) (P41594 other isoform, or with tags, fused parts or gaps): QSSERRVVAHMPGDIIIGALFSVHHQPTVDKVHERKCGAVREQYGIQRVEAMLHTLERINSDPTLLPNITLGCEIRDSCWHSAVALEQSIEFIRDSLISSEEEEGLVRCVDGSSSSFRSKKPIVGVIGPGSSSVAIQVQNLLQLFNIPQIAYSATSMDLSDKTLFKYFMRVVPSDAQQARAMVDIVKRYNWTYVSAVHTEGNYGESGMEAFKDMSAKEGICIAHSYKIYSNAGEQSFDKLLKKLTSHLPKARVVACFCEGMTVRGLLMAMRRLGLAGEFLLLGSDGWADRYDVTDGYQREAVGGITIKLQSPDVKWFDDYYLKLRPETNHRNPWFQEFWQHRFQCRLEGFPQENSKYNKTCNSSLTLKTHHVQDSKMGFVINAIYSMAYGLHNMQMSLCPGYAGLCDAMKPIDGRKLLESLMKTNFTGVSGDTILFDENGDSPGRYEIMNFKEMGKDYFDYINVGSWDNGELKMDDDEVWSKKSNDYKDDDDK
B1 showed an EC50 of 0.439 nM.

As to B2, the EC50 came to 0.453 nM.

The molecule B3 displayed an EC50 of 0.748 nM.

In the case of B4, the EC50 was 0.684 nM.

B5 showed an EC50 of 0.536 nM.

B6 came in with a half-maximal effective concentration (EC50) of 0.364 nM.

Molecule B7 came in with an EC50 of 0.269 nM.

With B8, the EC50 was found to be 0.312 nM.

For B9, the concentration giving a half-maximal response (EC50) stood at 0.367 nM.

Molecule B10 gave an EC50 of 0.506 nM.

In turn, B11 yielded an EC50 of 0.371 nM.

The molecule B12 returned an EC50 of 0.491 nM.

B13 registered an EC50 of 0.183 nM.

The target is the same in the next assay. As to the kind of experiment: HTRF, soluble ECD. This is another data set of the same source. For orientation: Time-resolved FRET reads energy transfer from a long-lived donor to a nearby acceptor.
On to B1, for which the EC50 was less than 2 nM.

On to B2, for which the EC50 was less than 2 nM.

For B3, the EC50 is less than 2 nM.

Molecule B4 showed an EC50 of less than 2 nM.

Take B5: the 50% effective concentration (EC50) was less than 2 nM.

As for B6, the EC50 was less than 2 nM.

B7: the EC50 is less than 2 nM.

In the case of B8, the EC50 was less than 2 nM.

B9 had a concentration for a half-maximal effect (EC50) of less than 2 nM.

B10 displayed an EC50 of less than 2 nM.

The molecule B11 had a half-maximal effective concentration (EC50) of less than 2 nM.

In the case of B12, the EC50 was less than 2 nM.

As to B13, the EC50 is less than 2 nM.

The target of a further assay is T1, human mGluR1 extracellular domain (human-mGluR1-ECD) (human, UniProt Q13255 19-592, limits assumed).
T1 construct: ECD construct made 'in a similar fashion' to the human mGluR5 one; also called hu-mGluR1
T1 sequence (Q13255 other isoform, or with tags, fused parts or gaps limits assumed): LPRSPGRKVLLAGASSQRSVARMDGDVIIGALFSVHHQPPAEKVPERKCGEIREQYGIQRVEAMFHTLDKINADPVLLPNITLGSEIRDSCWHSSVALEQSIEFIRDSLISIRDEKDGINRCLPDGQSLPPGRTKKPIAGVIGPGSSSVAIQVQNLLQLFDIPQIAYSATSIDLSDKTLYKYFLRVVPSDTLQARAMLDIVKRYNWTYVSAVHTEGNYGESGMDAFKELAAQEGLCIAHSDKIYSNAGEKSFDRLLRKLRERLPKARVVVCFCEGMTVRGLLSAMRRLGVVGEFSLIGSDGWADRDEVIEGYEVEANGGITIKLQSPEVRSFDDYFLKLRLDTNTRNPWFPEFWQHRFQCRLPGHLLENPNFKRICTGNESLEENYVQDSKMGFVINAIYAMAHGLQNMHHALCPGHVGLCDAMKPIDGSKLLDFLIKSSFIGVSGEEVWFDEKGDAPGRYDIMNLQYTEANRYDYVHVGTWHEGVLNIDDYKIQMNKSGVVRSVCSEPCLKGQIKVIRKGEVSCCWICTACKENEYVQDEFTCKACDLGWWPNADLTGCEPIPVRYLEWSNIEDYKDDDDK
As to the kind of experiment: HTRF, soluble ECD. The procedure: (§1) Binding of antibodies to mGluR5/mGluRJ measured via Homogeneous Time-Resolved Fluorescence (HTRF). Binding assays were performed using HTRF reagents from CisBio. Ten microliters of an antibody dilution series (highest final concentration of 30 nM) was incubated with 10 μl of mGluR-ECD (10 nM final concentration) in HTRF buffer (50 mM Phosphate buffer pH7, 0.8M KF (potassium fluoride), 0.2% BSA). Twenty microliters of Europium-labeled anti-hu-Fc donor (2 nM final concentration, CisBio Catalog No. 61HFCKLB) and 20 μl of XL665-labeled anti-Flag acceptor (60 nM final concentration, CisBio Catalog No. 61FG2XLB) were added to each well and incubated for 1 hour at room temperature. Alternatively, the antibody dilution series was incubated with 10 μl of biotinylated mGluR-ECD (10 nM final concentration), and 20 μl of Europium-labeled anti-hu-Fc donor (2 nM final concentration) and 20 μl of d2-labeled streptavidin acceptor (60 nM final concentration, CisBio Catalog No. 610SADLB) were added to each well. Fluorescence was measured at 620 and 665 nm with a delay of 300 μsec. Results were expressed as the ratio of signal at 665 nm over 620 nm. EC₅₀ values were calculated for binding of Ab1-Ab23 to human-mGluR5-ECD, of Ab1-Ab21 to rat-mGluR5-ECD, and of Ab1, Ab2 and Ab4-Ab12 to monkey-mGluR5-ECD and to human-mGluR1-ECD (TABLE 1).
As for B3, the binding result is reported as “no binding”.

With B7, the binding result was “no binding”.

The target in the next assay is T2, cynomolgus monkey mGluR5 extracellular domain (monkey-mGluR5-ECD) (cynomolgus monkey, UniProt P41594 21-580 (human entry), limits assumed).
T2 construct: ECD construct made 'in a similar fashion' to the human one; also called cyno-mGluR5
T2 sequence (P41594 other isoform, or with tags, fused parts or gaps limits assumed): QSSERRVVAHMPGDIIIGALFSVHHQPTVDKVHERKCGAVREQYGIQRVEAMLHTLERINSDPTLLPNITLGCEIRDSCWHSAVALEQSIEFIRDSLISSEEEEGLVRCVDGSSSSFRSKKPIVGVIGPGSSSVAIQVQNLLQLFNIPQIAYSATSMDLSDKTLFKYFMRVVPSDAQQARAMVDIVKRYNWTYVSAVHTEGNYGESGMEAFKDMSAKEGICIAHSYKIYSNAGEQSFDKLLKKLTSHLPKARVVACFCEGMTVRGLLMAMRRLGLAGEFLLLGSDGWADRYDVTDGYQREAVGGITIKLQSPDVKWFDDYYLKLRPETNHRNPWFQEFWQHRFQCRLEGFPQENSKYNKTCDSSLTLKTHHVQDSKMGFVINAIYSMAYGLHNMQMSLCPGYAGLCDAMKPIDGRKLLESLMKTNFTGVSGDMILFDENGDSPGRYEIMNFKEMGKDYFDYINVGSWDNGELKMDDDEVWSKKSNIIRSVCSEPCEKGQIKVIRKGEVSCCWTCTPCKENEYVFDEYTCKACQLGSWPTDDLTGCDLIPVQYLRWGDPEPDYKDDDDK
Briefly: HTRF, soluble ECD. The procedure:
as §1
B3 yielded an EC50 of 0.322 nM.

Take B7: the midpoint of the response, the EC50, lay at 0.371 nM.

The target in the next assay is T3, rat mGluR5 extracellular domain (rat-mGluR5-ECD) (rat, UniProt P31424 21-504).
T3 construct: ECD construct made 'in a similar fashion' to the human one
T3 sequence (P31424 other isoform, or with tags, fused parts or gaps limits assumed, form in doubt): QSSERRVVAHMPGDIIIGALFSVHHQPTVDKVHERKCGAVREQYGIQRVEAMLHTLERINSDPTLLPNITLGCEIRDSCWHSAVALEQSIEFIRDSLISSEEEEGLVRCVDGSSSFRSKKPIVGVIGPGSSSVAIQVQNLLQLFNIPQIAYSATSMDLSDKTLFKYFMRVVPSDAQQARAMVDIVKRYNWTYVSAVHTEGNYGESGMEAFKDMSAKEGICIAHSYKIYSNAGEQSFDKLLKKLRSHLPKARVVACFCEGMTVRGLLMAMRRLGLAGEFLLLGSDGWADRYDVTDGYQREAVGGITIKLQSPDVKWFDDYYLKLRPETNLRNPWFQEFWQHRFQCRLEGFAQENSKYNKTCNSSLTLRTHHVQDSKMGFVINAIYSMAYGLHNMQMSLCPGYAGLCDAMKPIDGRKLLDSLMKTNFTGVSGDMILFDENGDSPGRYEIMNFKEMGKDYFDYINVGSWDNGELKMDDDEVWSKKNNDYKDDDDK
As to the kind of experiment: HTRF, soluble ECD. On the procedure:
as §1
In turn, B1 showed a concentration for a half-maximal effect (EC50) of 0.427 nM.

The molecule B2 showed a concentration giving a half-maximal response (EC50) of 0.327 nM.

The molecule B4 registered an EC50 of 0.229 nM.

Consider B5, for which the 50% effective concentration (EC50) was determined as 0.487 nM.

Consider B7, for which the EC50 turned out to be 0.497 nM.

B8 registered an EC50 of 0.305 nM.

For the molecule B10, the response was half-maximal at 0.448 nM (EC50).

Take B11: it took 0.308 nM to reach a half-maximal effect (EC50).

On to B12, for which the concentration giving a half-maximal response (EC50) was 0.395 nM.

The molecule B13 had an EC50 of 0.283 nM.

A word on the EC50: it is the concentration that produces a half-maximal response.
